One assay addresses SADS FP peptide (SADS). As to the kind of experiment: peptide ELISA. In general terms: An ELISA detects its analyte on a solid surface through an enzyme-linked reagent.
Assay [1] concerns the target C-terminally truncated SARS-CoV-2 S protein (pSARS-CoV2-Strunc), ancestral (SARS-CoV-2, UniProt P0DTC2 14-1273). The assay is described as follows: cell-based or functional assay.
The target in a further assay is T1, HCoV-229E S ectodomain (HCoV-229E).
T1 construct: range 17-1142
The assay is described as follows: ELISA on coated S.

We go through seven molecules from patent publication US20250382354A1 (INSTITUTE FOR RESEARCH IN BIOMEDICINE IRB, published 2025).

B1: fp.001 (antibody, V domains shown)
VH: VQLVESGGGVVQPGRPLRLSCSGSGFIFSNYAMHWVRQAPGKGLEWVAIISFDARNKRYADSVEGRFTISRDNSKNILYLQMNSLRLEDSAVYFCARDLFLSDYDNGVYDPTRGGFDYWGQGTLVTVSS
VL: EIVMTQSPATLSLSPGERATLSCRASQSVNNRLAWYQQKLGQPPRLLISGASTRATGIPARFTGSGSGTEFTLTISSLQSEDFAVYYCQQYHDWPLLSFGGGTKVEIK
What is called EC50 is the concentration that produces a half-maximal response. A lower EC50 goes with a more potent agent. Consider B1, for which the values for the EC50 in the assay with SADS FP peptide and in the assay with HCoV-229E S ectodomain were 0.0255 µg/mL and 0.028 µg/mL, respectively. Besides, the “Ancestral Pseudovirus IC50” value in assay [1] turned out to be 2.19 µg/mL.

B2: fp.003 (antibody, V domains shown)
VH: VQLVESGGGVVQPGTSLRLSCTASGFSFSNYAMHWVRQAPGKGLEWVAIISFDTRNKEFADSVKGRFSISRDNSKNSLNLQMNSLRPEDTGVYYCARDLFLSDYDSRGYEPSRGGFDYWGQGTLVTVSS
VL: EIVMTQSPATLSVSPGERATLSCRASQSVSSSLAWYQQKLGQPPRLLIYGASTRATGIPARFSGSGSGTEFTLTISSLKSEDSAVYYCQQYNDWPLLSFGGGTKVEIK
Consider B2, for which the EC50 in the assay with SADS FP peptide came to 0.0305 µg/mL; with HCoV-229E S ectodomain, 0.0443 µg/mL. Also, in assay [1], the “Ancestral Pseudovirus IC50” value came out at 9.26 µg/mL.

B3: fp.008 (antibody, V domains shown)
VH: VQLVESGGGVVQPGRSLRLSCRASGFRFNNYAMHWVRQAPGKGLEWVAIISYEARNEKYAASVKGRFSISRDNAKNTLYLQMNSLRPEDTAIYYCARDVFLSDYDQSGYDVTRGGFDYWGQGTLVTVSS
VL: EIVMTQSPATLSVSPGESATLSCRASQSVSSSLAWYQHKFGQAPRLLIYGASTRATGIPDRFSGSGSGMEFTLTISSLQSEDVAIYYCQQYGDWPLVTFGGGTKVEIK
On to B3, for which the EC50 with SADS FP peptide worked out at 0.024 µg/mL; with HCoV-229E S ectodomain, 0.0482 µg/mL. In addition, in assay [1], the “Ancestral Pseudovirus IC50” value is 3.56 µg/mL.

B4: fp.002 (antibody, V domains shown)
VH: VQLVESGGGVVQPGTSLRLSCAGSGFNFDNYAIHWVRQAPGQGLEWVAIISYEARNKKYAGSVTGRFSISRDNSKSMVYLQMDSLRGEDTAVYYCARDLFLSDYDRSGYDPTRGGFDLWGQGTLVTVSS
VL: EIVMTQSPATLSVSPGERATLSCRASQSVSSSLAWYQHKLGQAPRLLIYGASTRATGIPGRFSGSGSGTEFTLTISSLQSEDVAIYYCQQYGDWPLVTFGGGTKVEIK
As to B4, the EC50 came out at 0.0252 µg/mL in the assay with SADS FP peptide and 0.04 µg/mL in the assay with HCoV-229E S ectodomain. In addition, the “Ancestral Pseudovirus IC50” value in assay [1] was 16.1 µg/mL.

B5: fp.009 (antibody, V domains shown)
VH: VQLVESGGGVVQPGTSLTLSCEASGFTFSNYAMHWVRQAPGKGLEWVAIISFDTRNKKFAGSVQGRFSISRDNAKNSIYLQMNNLRPEDTGIYYCARDVFLSDYDSRGFDRTRGGFDYWGQGTLVTVSS
VL: EIVMTQSPATLSVSPGEKATLSCRASESVGSSLAWYQQKLGQAPRLLIYGASTRATGIPARFSGSGSGAEFTLTISSLQSEDFAIYYCQQYGDWPLLTFGGGTKVEIK
For the molecule B5, the EC50 in the assay with SADS FP peptide stood at 0.0247 µg/mL; with HCoV-229E S ectodomain it was 0.0285 µg/mL. In assay [1], the “Ancestral Pseudovirus IC50” value is 0.873 µg/mL.

B6: fp.004 (antibody, V domains shown)
VH: VQLVESGGGVVQPGTSLRLSCVASGFTFSNYAMHWVRQAPGKGLEWVAIISFDTRNTASAASVKGRFNISRDNSKNSLYLQMNSLRPEDTGVYYCARDLFLSDYDSRGYDPITGGFDCWGQGTLVTVSS
VL: EIVMTQSPAALSVSPGEGATLSCRASQSVGSRLAWYQQKLGRPPRLLIYGASTRATGIPARFSGSGSGTEFTLTISSLQSEDFAVYYCQQYNDWPLLTFGGGTKVKIK
B6: the figures for the 50% effective concentration (EC50) with SADS FP peptide and with HCoV-229E S ectodomain were 0.0276 µg/mL and 0.037 µg/mL, respectively. In addition, the “Ancestral Pseudovirus IC50” value in assay [1] stood at 7.84 µg/mL.

B7: fp.011 (antibody, V domains shown)
VH: EVQLLESGGGLVQPGGSLRLSCAGSGFTFNNYAMTWVRQAPGRGLEWVSAISGSGGSSHYADSVKGRFTITRDNSKNTLYLQMNSLRAEDTAVYYCAFIDYYSGWSYYYGLDVWGQGTTVTVSS
VL: EIVLTQSPATLSLSPGERATLSCRASQGVRTYVAWYQQKPGQAPRLLIYDASNRATGIPARFSGSGSGTDFTLTISSLEPEDFAVYYCQQRYNWPLCSFGQGTKLEIK
On to B7, for which the EC50 in the assay with SADS FP peptide turned out to be 0.0276 µg/mL; in the assay with HCoV-229E S ectodomain, 0.151 µg/mL.
